In the assay the target is T1, Flag-tagged Drosophila Iron Regulatory Protein 1A (IRP1A), wild type (Drosophila, UniProt Q9VCV4 1-902).
T1 construct: Drosophila IRP1A, cDNA LD36161; also called wild type IRP1A; 3x Flag-tagged IRP1A; source: S2 cells, transfected, in lysate
T1 sequence (looked up): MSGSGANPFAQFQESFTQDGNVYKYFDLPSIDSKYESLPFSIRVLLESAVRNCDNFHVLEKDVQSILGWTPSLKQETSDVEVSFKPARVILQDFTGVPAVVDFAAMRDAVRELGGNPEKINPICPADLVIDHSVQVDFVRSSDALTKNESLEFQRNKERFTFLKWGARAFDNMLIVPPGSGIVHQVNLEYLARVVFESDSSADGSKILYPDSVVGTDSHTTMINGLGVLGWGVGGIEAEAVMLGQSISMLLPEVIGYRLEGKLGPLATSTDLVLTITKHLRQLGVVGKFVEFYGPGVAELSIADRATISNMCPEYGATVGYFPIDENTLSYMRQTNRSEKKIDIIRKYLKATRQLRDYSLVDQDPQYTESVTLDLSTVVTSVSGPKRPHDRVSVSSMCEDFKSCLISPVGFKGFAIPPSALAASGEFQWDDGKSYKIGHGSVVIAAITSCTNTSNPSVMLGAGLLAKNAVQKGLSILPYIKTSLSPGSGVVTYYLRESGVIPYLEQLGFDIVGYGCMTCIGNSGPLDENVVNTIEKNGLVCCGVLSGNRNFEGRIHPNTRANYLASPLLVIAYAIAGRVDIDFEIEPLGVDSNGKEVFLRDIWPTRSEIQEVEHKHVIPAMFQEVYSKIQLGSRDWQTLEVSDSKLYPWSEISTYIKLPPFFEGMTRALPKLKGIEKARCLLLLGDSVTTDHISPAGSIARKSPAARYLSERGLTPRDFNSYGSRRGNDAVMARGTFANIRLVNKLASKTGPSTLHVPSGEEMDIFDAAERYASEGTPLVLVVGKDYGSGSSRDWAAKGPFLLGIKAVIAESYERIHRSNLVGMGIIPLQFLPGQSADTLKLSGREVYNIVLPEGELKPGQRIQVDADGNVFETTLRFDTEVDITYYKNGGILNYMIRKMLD
The assay is described as follows: co-IP; S2 cells, triple co-transfection of 3xFlag-IRP1A, 6xMyc-AGBE and 3xHA-Cisd2 from one plasmid; Flag-IRP1A as bait; co-precipitated Cisd2 quantified against the sample without AGBE; three biological replicates. Conditions: partners not purified.

B1: HA-tagged Drosophila Cisd2 (natural protein, UniProt Q9VAM6 1-133, looked up)
chain: MEPISHLVKSSLPNYLSSLPVPDSIGGWFKLSFKDWLALIPPTVVVAGLGYTAYLAYCPAARASCAAKNSGRCNNHIRKNEPKVVDMIDVEDIAEKAAFCRCWKTKNWPYCDGSHGEHNKQTGDNVGPIVIKK
notes: Drosophila Cisd2, cDNA RE49709; also called mitoNEET; Cisd2/mitoNEET; source: S2 cells, transfected, in lysate
As to B1, the “fold change of co-immunoprecipitated Cisd2 with AGBE co-transfected against without AGBE” value is around 3 fold.

The values above are taken from paper PMC6884552, “Glycogen branching enzyme controls cellular iron homeostasis via Iron Regulatory Protein 1 and mitoNEET” (Nature Communications, 2019).
